± gives the uncertainty stated by the source.
Test: self-splicing fitness, log relative to wild type (ln ratio); higher = more splicing; Tetrahymena group I intron in knt gene, E. coli kanamycin selection, DiMSum; sequences stand for … in CUCUCU…GGAGGGAAAAGUUAUCAGGCAUGCACCUGGUAGCUAGUCUUUAAACCAAUAGAUUGCAUCGGUUUAAAAGGCAAGACCGUCAAAUUGCGGGAAAGGGGUCAACAGCCGUUCAGUACCAAGUCUCAGGGGAAACUUUGAGAUGGCCUUGCAAAGGGUAUGGUAAUAAGCUGACGGACAUGGUCCUAACCACGCAGCCAAGUCCUAAGUCAACAGAUCUUCUGUUGAUAUGGAUGCAGUUCACAGACUAAAUGUCGGUCGGGGAAGAUGUAUUCUUCUCAUAAGAUAUAGUCGGACCUCUCCUUAAUGGGAGCUAGCGGAUGAAGUGAUGCAACACUGGAGCCGCUGGGAACUAAUUUGUAUGCGAAAGUAUAUUGAUUAGUUUUGGAGUACUCGUGGUCG
Outline: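 Library with all eight P1ex-region intron nucleotides randomised, intron inside the knt kanamycin-resistance gene on pET-22b(+), in E. coli BL21(DE3). Cells grew overnight at 37°C or 30°C on LB agar with or without 25 μg/mL kanamycin (plus 100 μg/mL carbenicillin, 50 μM IPTG, 0.2% rhamnose), in six replicate transformations. Pooled colonies were amplicon-sequenced on Illumina HiSeq 2500. DiMSum fitness is the error-weighted combination of wild-type-normalised replicate fold changes, kanamycin versus none.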

Sequence | self-splicing fitness (ln) (30 °C) | self-splicing fitness (ln) (37 °C)
UUAGAGCAAUAUUACGCAAU | -2.21 ± 0.2 | -1.52 ± 0.41
CGAUAGCAAUAUUACGCACU | -1.12 ± 0.14 | 0.174 ± 0.14
GCGAAGCAAUAUUACGUCAA | -3.02 ± 0.19 | -2.05 ± 0.15
UAUGAGCAAUAUUACGCCCG | -2.23 ± 0.3 | 0.00889 ± 0.21
ACCGAGCAAUAUUACGUCUG | -2.37 ± 0.095 | -2.28 ± 0.14
CUUAAGCAAUAUUACGGAGC |  | -4.02 ± 0.39
GCCAAGCAAUAUUACGCCAA | -2.4 ± 0.23 | -1.19 ± 0.15
GGAAAGCAAUAUUACGCCUU | -1.07 ± 0.29 | -1.29 ± 0.38
CCUAAGCAAUAUUACGAAAU | -2.79 ± 0.18 | -2.77 ± 0.29
GCAUAGCAAUAUUACGUGGC | -2.72 ± 0.32 | -2.15 ± 0.31
AAUGAGCAAUAUUACGCGGG | -3.11 ± 0.3 | -2.57 ± 0.25
AGCUAGCAAUAUUACGAAUU | -1.74 ± 0.11 | -1.14 ± 0.13
UUCCAGCAAUAUUACGGGUU | -2.05 ± 0.1 | -1.39 ± 0.13
GCUUAGCAAUAUUACGGAAC | -0.644 ± 0.15 | -0.955 ± 0.14
GUACAGCAAUAUUACGCAGG | -3.44 ± 0.23 | -1.93 ± 0.19
GGUGAGCAAUAUUACGCAAG |  | 0.418 ± 0.23
UAUAAGCAAUAUUACGUCAA | -2.24 ± 0.14 | -0.698 ± 0.11
CACCAGCAAUAUUACGGAUU | -2.05 ± 0.055 | -1.36 ± 0.085
CGCGAGCAAUAUUACGCCAU | -3.53 ± 0.24 | -3.92 ± 0.42
GCUGAGCAAUAUUACGGUCU | -2.03 ± 0.2 | -1.65 ± 0.21
CGAUAGCAAUAUUACGAGUC | -2.74 ± 0.19 | -3.73 ± 0.39

Sequence | self-splicing fitness (ln) (30 °C) | self-splicing fitness (ln) (37 °C)
AAAAAGCAAUAUUACGCUCG | -0.161 ± 0.11 | 0.0542 ± 0.14
GUUCAGCAAUAUUACGCUUA | -0.682 ± 0.12 | -0.0254 ± 0.12
AUUUAGCAAUAUUACGCAUG | -1.05 ± 0.12 | -0.777 ± 0.18
GGGCAGCAAUAUUACGCUCA | -1.09 ± 0.094 | -0.272 ± 0.16
GGUGAGCAAUAUUACGAAUC |  | -2.04 ± 0.4
UAACAGCAAUAUUACGCUAA | -1.93 ± 0.13 | -1.25 ± 0.12
CAGUAGCAAUAUUACGCCGG | -0.444 ± 0.21 | -0.309 ± 0.28
GCUCAGCAAUAUUACGGACC | -0.753 ± 0.1 | -0.186 ± 0.13
UGGAAGCAAUAUUACGGAGU | -3.51 ± 0.22 | -2.75 ± 0.22
UCCUAGCAAUAUUACGUUCG | -1.03 ± 0.16 | -2.28 ± 0.28
GUCGAGCAAUAUUACGGCUG | -2.54 ± 0.25 | -1.7 ± 0.39
GUCGAGCAAUAUUACGAUGG | -3.01 ± 0.28 | -1.85 ± 0.18
UCCAAGCAAUAUUACGCACA | -0.502 ± 0.092 | -0.309 ± 0.099
CUCAAGCAAUAUUACGCCUG | -4.22 ± 0.31 | -2.52 ± 0.24
UGCCAGCAAUAUUACGUGAC | -3.43 ± 0.16 | -3.2 ± 0.22
UGUGAGCAAUAUUACGAGUA | -2.16 ± 0.21 | -2.07 ± 0.29
ACCCAGCAAUAUUACGAACC | -2.19 ± 0.15 | -0.993 ± 0.15
AAAGAGCAAUAUUACGAGCC | -2.96 ± 0.35 | 
CAAUAGCAAUAUUACGGAAA | -3.49 ± 0.19 | -2.83 ± 0.32
CACUAGCAAUAUUACGCCCG | 0.71 ± 0.13 | 0.619 ± 0.12
CGUAAGCAAUAUUACGAAAA | -3.49 ± 0.31 | -1.49 ± 0.16

Sequence | self-splicing fitness (ln) (30 °C) | self-splicing fitness (ln) (37 °C)
CGUCAGCAAUAUUACGCUCU | -1.14 ± 0.12 | -0.257 ± 0.12
ACCAAGCAAUAUUACGUAAC | -3.94 ± 0.17 | -2.19 ± 0.16
AUCUAGCAAUAUUACGUCCA | -0.699 ± 0.14 | 0.279 ± 0.12
CUCAAGCAAUAUUACGGGCG | -2.1 ± 0.086 | -1.34 ± 0.094
GAACAGCAAUAUUACGAUUU | -0.342 ± 0.05 | -0.476 ± 0.064
UCCCAGCAAUAUUACGGUUA | -0.244 ± 0.071 | 0.0867 ± 0.077
CCCGAGCAAUAUUACGGUAC | -4.04 ± 0.22 | -2.85 ± 0.21
UCGAAGCAAUAUUACGGUGG | -1.82 ± 0.094 | -1.55 ± 0.14
UGUGAGCAAUAUUACGUUGG | -2.86 ± 0.31 | -2.85 ± 0.44
AGGGAGCAAUAUUACGGUAG | -4 ± 0.33 | 
UGACAGCAAUAUUACGGCAA | -1.41 ± 0.14 | -0.13 ± 0.17
CUGCAGCAAUAUUACGGGUA | -3.32 ± 0.4 | -0.797 ± 0.14
GUAGAGCAAUAUUACGCUGA | -2.33 ± 0.11 | -1.15 ± 0.14
ACUCAGCAAUAUUACGGAAG | -0.707 ± 0.088 | -0.89 ± 0.13
AUUUAGCAAUAUUACGAUUA | -1.4 ± 0.2 | -0.561 ± 0.16
AGCUAGCAAUAUUACGUUCC | -0.609 ± 0.11 | -1.76 ± 0.17
ACUCAGCAAUAUUACGAGAG | -2.02 ± 0.14 | -0.637 ± 0.12
GUUCAGCAAUAUUACGCUAA | -1.03 ± 0.2 | 0.184 ± 0.2
GAUCAGCAAUAUUACGCGCC | -0.0847 ± 0.14 | -0.763 ± 0.17
